Target: RABV-G domain III (Rabies virus, strain CVS-11 (GenBank …, stabilised))
Assay: crystal structure

B1: CR57 diabody (other)
VH: EVQLVQSGAEVKKPGSSVKVSCKASGGTFNRYTVNWVRQAPGQGLEWMGGIIPIFGTANYAQRFQGRLTITADESTSTAYMELSSLRSDDTAVYFCARENLDNSGTYYYFSGWFDPWGQGTLVTVSS
VL: QSALTQPRSVSGSPGQSVTISCTGTSSDIGGYNFVSWYQQHPGKAPKLMIYDATKRPSGVPDRFSGSKSGNTASLTISGLQAEDEADYYCCSYAGDYTPGVVFGGGTKLTVL
For B1, the “stoichiometry N” value was 2 domain III per diabody.
